Test results from the nanobody polyreactivity screen of Harvey et al. (2022).

Experiment: yeast display, Sf9 membrane polyspecificity reagent, FACS + sequencing; frameworks hold sequencing errors
Procedure, shortened: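 Genes from sorted yeast were amplified by colony PCR, read by MiSeq 2 × 250 sequencing and filtered on CDR length. These cells carried a synthetic nanobody library in Saccharomyces cerevisiae BJ5465 and were sorted by FACS into low and high (top ~1%) gates on anti-HA and streptavidin fluorescence. Polyreactivity is labelled according to the gate of origin.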

Row | Sequence | polyreactivity (PSR sort gate)
1 | QVQLVESGGGLVQAGGSLRLSCAASGYIFRYNAMGWYRQAPGTEREFVASINWSGGRTYYADSVKGRFTLSRDNAKNTVYLQMNSLKPEDTAVYYCAAVYYVSLVYGYYVEGSYEYYYWGQGTQVTVSS | high polyreactivity
2 | QVQLVESGGGLVQAGGSLRLSCAASGYIFSGYAMGWYRQAPGKERELVAAISSNGGSTYYADSVKGRFTISRDNAKNTVYLQMISLKPEDTAVYYCNRGLAARVGRGDYWGQGTQVTVSS | low polyreactivity
3 | QVQLVESGGGLVQAGGSLRLSCAASGYIFSRYAMGWYRPAPGKERELVAAITRSGTRTYYADSVKGRFTISRDNAKNTVYLQMNSLKPEDTAVYYCAKQYLYSSGFDYWGQGTQVTVSS | high polyreactivity
4 | QVQLVESGGGLVQAGGSLRLSCAASGYIFSYYAMGWYRQAPGKEREFVAAIRWRGGSTYYADSVKGRFTISRDYAKNTVYLQMNSLKPEDTEVYYCAAGPATSYYWGQGTQVTVSS | high polyreactivity
5 | QVQLVESGGGLVQAGGSLRLSCAASGYIFSYYAMGWYRQAPGKERELVAAINRSGGRTYYADSVKGRFTISRDNAKNTVYLQMNSLKPEDTAVYYCNAYSGLSYRYGYYYWGQGTQVTVSS | high polyreactivity
6 | QVQLVESGGGLVQAGGSLRLSCAASGYIFTEYDMGWSRQAPGKERELVAANSESGGSTYYADSVKGRFTISRDNAKNTVYLQMNSLKPEDTAVYYCAADQYYYWYTHQSIGYDYWGQGTQVTVSS | low polyreactivity
7 | QVQLVESGGGLVQAGGSLRLSCAASGYIFTSYAMGWYRQAPGKERELVATITTGGSTYYADSVKGRFTISRDNAKNTVYFQMNSLKPEDTAVYYCNAVLHGWYDYWGQGTQVTVSS | low polyreactivity
8 | QVQLVESGGGLVQAGGSLRLSCAASGYIFTTYAMGWYRQAPGKERELVAAISSSGGRTSYADSVKGRFTISRDNAKNTVYLQMNSLKPEDTAVYYCNARVAPKSRRITYGYWGQGTQVTVSS | high polyreactivity
9 | QVQLVESGGGLVQAGGSLRLSCAASGYIFTYYTMGWYRQAPGKERELVAAITSSGSRTRYADSVKGRFTISRDNAKNTVYLQMNSLKPEDTAVYYCAAVYRLKSGVEWRDSQFGYWGQGTQVTVSS | high polyreactivity
10 | QVQLVESGGGLVQAGGSLRLSCAASGYIFVGNAMGWYRQAPGKERELVATIRSSTGNTYADSVKGRFTISRDNAKNTVYLQMNSLKPEDTAVYYCATVYEWPGWGREYGYWGQGTQVTVSS | low polyreactivity
11 | QVQLVESGGGLVQAGGSLRLSCAASGYIFVHYAMGWYRQAPGKERDLVAAITRGGNTYYADSVKGRFTISRDNANNTVNLQMNSLKPEDTAVHYCAADNYGRGAGYDYWGQGSQVTVSS | high polyreactivity
12 | QVQLVESGGGLVQAGGSLRLSCAASGYIFVIYAMGWYSQAPGEERELVAAISWSGDTTYYADSVKGRFTISRDNAKNTVYLQMNSLQPEDTAVFYCNAETAYYQVDYCGQGTQVTVSS | low polyreactivity
13 | QVQLVESGGGLVQAGGSLRLSCAASGYIFVKNAMGWYRQAPGKERELVAAISTRGGRTYYADSVKVRFTISRDNAKNTVSLQMNSLKPEDTAVYYCAAVHHTSYYDANSYGYWGQGTQVTVSS | high polyreactivity
14 | QVQLVESGGGLVQAGGSLRLSCAASGYIFVRNAMGWYRQAPGKEREFVAAISGSGGSTYYADSVKGRFTISRDNAKNTVYFQMNSMKPEDTAVYYCAADYATVTWRGIAYDYWGQGTQVTVSS | low polyreactivity
15 | QVQLVESGGGLVQAGGSLRLSCAASGYIFVWYAMGWSRQAPGKERELVATISGGGGTYYADSVKGRFTISRDNAKNNVYFQMNSLNPEDTAVYYCNKGVGWTEASPYSPEYDYWGQGTQVSVSS | low polyreactivity
16 | QVQLVESGGGLVQAGGSLRLSCAASGYIFVYNAMGWYRQAPGKERELVAAITDGGGSTYADSVKGRFTISRDNAKNTVYLQMNSLNPEDTAVYYCAARYSDTTWYVLYYYWGQGTQVTVSS | low polyreactivity
17 | QVQLVESGGGLVQAGGSLRLSCAASGYIFWINSMGWYRQAPGKERELVAAIRYSTGRTYYADSVKGRFTISRDNAKNTVYLQMNSQKPEDTAVYYCNARSWYIRGSQEYYYWGQGTQLTVSS | high polyreactivity
18 | QVQLVESGGGLVQAGGSLRLSCAASGYIFWWNAMGWYRQAPGKERELVAGISWSGSPTYYADSVKGRFTITRDNAKNTVYLQMNSLKPEDTAVYYCNAAAITLYDYDYWGQGTQVTVSS | low polyreactivity
19 | QVQLVESGGGLVQAGGSLRLSCAASGYIFYDNAMGWYRQAPGKERELVAAISASGGDTYYADSVKGRFTISRDNAKNTVYLQMNSLKPEDTAVYYCAADLITYAMEFWGQGTQVTVSS | low polyreactivity
20 | QVQLVESGGGLVQAGGSLRLSCAASGYIFYFYAMGWYRQAPGKERELVAAITSVGSTKYADSVKGRFTISRDNAKNTVYLQMNSLKPEDTAVYYCAARRWRSYYYWGQGTQVTVSS | high polyreactivity
21 | QVQLVESGGGLVQAGGSLRLSCAASGYIFYHYAMGWYRQAPGKERELVATISLGGGRTYYADSVKGRFTISRDNAKNTVYLQMNSLKPEDTAVYYCAAKQYGYYSDYYYWGQGTQVTVSS | high polyreactivity
22 | QVQLVESGGGLVQAGGSLRLSCAASGYIFYNAMGWYRQAPGKERELVAAISSSGGTTYYADSVKGRFTISRDNAKNTVFLQMNSLKPEDTAVYYCAATFRKRYPSRYDSWGQGTQVTVSS | low polyreactivity

Row | Sequence | polyreactivity (PSR sort gate)
23 | QVQLVESGGGLVQAGGSLRLSCAASGYIFYNYAMGWYRQAPGKERELVAAISRRGGSTYYADSVKGRFTISRDNAKNTVYLEMNSLKPEDTAVYYCAAKQYGWNLYGYWGQGTQVTVSS | high polyreactivity
24 | QVQLVESGGGLVQAGGSLRLSCAASGYIFYRYTMGWYRQAPGKERELVAAISFRGGTTYYADSVKGRFTISRDNAKNTVYLQMNSLKPEDTAVYYCAARYGYYTSDYKYYYWGQGTQVTVSS | high polyreactivity
25 | QVQLVESGGGLVQAGGSLRLSCAASGYIFYTYAMGWYRQAPGKERELVAGINRGDSTNYADSVKGRFTISRDNAKNTVYLQMNSLKPEDTAVYYCNARQRTYYRTHRIRHKGNGYWGQGTQVTVSS | low polyreactivity
26 | QVQLVESGGGLVQAGGSLRLSCAASGYILFAYAMGWYRQAPGKERELVATITTSGGITYYADSVKGRFTISRDNAKNTVYLQMNSLKPDDTAVYYCAAAEGCGLVTYDYWGQGTQVTVSS | low polyreactivity
27 | QVQLVESGGGLVQAGGSLRLSCAASGYILRPYSKVWYRQSPGKERELLASISRSSGNTFYADSVKGRFTISRDNAKNSVYLEMNSLKPDDSAVYYCAKDRSQRDLVYFPRVIYRMDYWGQGTQVNVSS | high polyreactivity
28 | QVQLVESGGGLVQAGGSLRLSCAASGYILRRNAMGWYRKAPGKERELVARINSSGGSTYYADSVKGRFTISRDNAKNTVYLQMNSLKPEDTAVYYCAKSYYRGRDYWGQGTQVTVSS | high polyreactivity
29 | QVQLVESGGGLVQAGGSLRLSCAASGYILRSHAMGWYRQAPGKEWEFVAAITYSGGSTYYADSVKGRFTISRDNAKNTVYLQLNSLKPEVTAVYYCSKTTRYPRGYGYWGQGTQVTVSS | low polyreactivity
30 | QVQLVESGGGLVQAGGSLRLSCAASGYILYINTMGWYRQAPGKERELVAAITYSGASTYYADSVKGRFTISRDNAKNTVYLQMNSLKPEDNGVYYCAADGYYGGYNYWGQGTQVTVSS | low polyreactivity
31 | QVQLVESGGGLVQAGGSLRLSCAASGYIPYCYAMGWYRQAPGKERELVAAISSGGNTYYADSVKGRFTISRDNAKNTVYLQMNSLKPEDTAVYYCAAEFRNYIFHYKYNYWGQGTQVTVSS | high polyreactivity
32 | QVQLVESGGGLVQAGGSLRLSCAASGYISGVYPMGWYRQAPGKERELVAAITKRGGNTYYADSVKGRFTISRDNAKNTVYLQMNSLKAEDTAVYYCAKKTAGHPWGPIYDYWGQGTQVTVSS | high polyreactivity
33 | QVQLVESGGGLVQAGGSLRLSCAASGYIVRNAMGWYRQAPGKERQLVAAISRRGGSTYYADSVKGRFTISRDNAKNTVYLQLNSLKPEDTAVYYCAKDKVIPSFDADYYDWGQGTQVTVSS | high polyreactivity
34 | QVQLVESGGGLVQAGGSLRLSCAASGYIYIRNAMGWYRQAPGKERELVAAISCTGGSTYYADSVKGRFTISRDNAKNTVYLQMKILKPEDTAVYYCNKYYRAWLLWDYGYWGQGTQVTVSS | high polyreactivity
35 | QVQLVESGGGLVQAGGSLRLSCAASGYIYLPYAMGWYRQAPGKERELVAAIRWSGGSTYYADSVKGRFTISRDNAKNTVYLQMNSLKPEDTAVYYCAAYYVARDRRYPKAYSYEYWGQGTQVTVSS | high polyreactivity
36 | QVQLVESGGGLVQAGGSLRLSCAASGYIYNGYAMGWYRQAPGKERELVAAIDWSGGSTYYADSVKGRFTISRDNAKNTVYLQMNSLKPEDTAVYYCNASEWLSASYYWGQGTQVTVSS | high polyreactivity
37 | QVQLVESGGGLVQAGGSLRLSCAASGYLRVNAMGWYRQAPGTERELVAAITGNGGRTYYADSVKGRFTISRDNAKNTVYLQMNSLKPEDTAVYYCNIAGSSRSWFGSYYWGQGTQVTVSS | high polyreactivity
38 | QVQLVESGGGLVQAGGSLRLSCAASGYNFKPNTMGWYRQAPGKERELVAAITRGGRTKYADSVKGRFTISRDNAKNTVYLQMNSLKPEDTAVYYCATRVHKSTDGYDYWGQGTQVTVSS | high polyreactivity
39 | QVQLVESGGGLVQAGGSLRLSCAASGYNFKRYTMGWYRQAPGKERELVAAISGGDSTNYADSVKGRFTISRDNAKNTVYLHMNSLKPEDTAVYYCAAGGLTLWHGYILGYWGQGTQVTVSS | low polyreactivity
40 | QVQLVESGGGLVQAGGSLRLSCAASGYNFSIYAMGWYRQAPGKERELVAAIRSDARTYYADSVKGRFTISRDNAKNTVYLQMNSLKPEDTAVYYCAADQYSYAANRPFYRGYYWGQGTQVTVSS | high polyreactivity
41 | QVQLVESGGGLVQAGGSLRLSCAASGYNFWYNGMGWYRQAPGKERELVAAITSSSGTTYYADSVKGRFTISRDNAKTTVYLQMNSLKPVDTSVYYFNAVLSSNTQCRYPGDYWGQGTQVTVSS | low polyreactivity
42 | QVQLVESGGGLVQAGGSLRLSCAASGYSFRLYAMGWYRQAPAKEWELVAAISKSGGSTYYADSVKGRFTISRDNANNTVYLQMNRLKPEETADYYCAADGVARYQKGQYDYWGQGTQVTVSS | high polyreactivity
43 | QVQLVESGGGLVQAGGSLRLSCAASGYSFSYNAMGWYRQAPGKERELVAAMSRTGGSTNYADSVKGRFTISRDHAKKTVDLQMNSLKPEDTAVYDCAKRYRYPSWGEYGYWGLGTQVTVSS | high polyreactivity
